Measured values published in article PMC5430726.

How the values were obtained:
[1] = biological target: Grb2 SH3C-SLP65 peptide binary complex (formed before Vav SH3N was added) (mouse) (UniProt Q60631); experiment: ITC; Vav SH3N titrated into the preformed Grb2 SH3C-SLP65 peptide binary complex (gives Complex 2, trimeric); 20 mM sodium phosphate, 100 mM NaCl, pH 6.0, 25 °C; Kd called approximate
[2] = biological target: Grb2 C-terminal SH3 domain (SH3C), residues 155-217 (mouse) (UniProt Q60631); experiment: ITC; free Grb2 SH3C in the cell (20 uM for the peptide, 40 uM for Vav) titrated with 280 uM SLP65 peptide or 600 uM Vav SH3N; 20 mM sodium phosphate, 100 mM NaCl, pH 6.0, 25 °C; one-site binding model
Grb2 C-terminal SH3 domain (SH3C), residues 155-217 (mouse), sequence (Q60631 155-217): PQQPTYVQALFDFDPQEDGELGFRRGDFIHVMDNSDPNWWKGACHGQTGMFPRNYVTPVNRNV

Grb2 SH3C-SLP65 peptide binary complex (formed before Vav SH3N was added) (mouse), sequence (Q60631 155-217, one chain of several): as the sequence (Q60631 155-217) above

In the case of “Vav N-terminal SH3 domain (SH3N), residues 583-660 (from UniProt Q8VDU4 583-660) (domain or fragment)”, the Kd [1] is reported as 11.5 µM, the dH [1] is reported as -0.54 kcal/mol and the stoichiometry N [1] is reported as 1.1. It also gave a Kd [2] of 4.5 µM, a dH [2] of -3.15 kcal/mol and a stoichiometry N [2] of 0.91.
